From EP4800035A1 (National Cancer Center, dated 2025)
Blank lines part the entries; values can stand above or below the binder they belong to.

Legend:
[1] = biological target: T1, human interleukin-7 receptor (IL-7R) (human, UniProt P16871 21-459); assay: flow cytometry on NALM6 and REH cells (FIG. 5, human chimeric clone)
T1 construct: whole, on cells; Endogenous receptor on NALM6 and REH cells in flow cytometry; also called IL-7Ralpha; IL-7 Ralpha
T1 sequence (looked up): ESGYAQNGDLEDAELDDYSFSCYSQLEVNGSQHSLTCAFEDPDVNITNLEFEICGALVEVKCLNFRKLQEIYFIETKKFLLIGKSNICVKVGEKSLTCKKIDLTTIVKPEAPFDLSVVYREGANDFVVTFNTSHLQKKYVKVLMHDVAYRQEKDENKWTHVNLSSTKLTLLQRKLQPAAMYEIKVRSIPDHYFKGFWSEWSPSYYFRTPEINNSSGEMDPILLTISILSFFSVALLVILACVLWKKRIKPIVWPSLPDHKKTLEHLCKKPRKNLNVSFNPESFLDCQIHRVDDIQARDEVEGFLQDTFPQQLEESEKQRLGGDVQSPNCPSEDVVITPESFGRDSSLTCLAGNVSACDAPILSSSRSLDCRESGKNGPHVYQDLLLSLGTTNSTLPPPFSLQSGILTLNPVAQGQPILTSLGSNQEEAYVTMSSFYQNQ

[2] = biological target: T1, human interleukin-7 receptor (IL-7R); assay: flow cytometry on NALM6 and REH cells (FIG. 2)

binding result [1]: binds
B1: clone 577 chimeric antibody in the IgG1 format (antibody)
heavy: not shown
light: ETTVTQSPASLSMAMGEKVTIRCMTSTDINDDMNWYQQKPGEPPKLLISEGNTLRPGVPSRFSSSGYSTDFFFTIEYMLSEDVADYFCLQTDNLPLTFGAGTKLELRRTVAAPSVFIFPPSDEQLKSGTASVVCLLNNFYPREAKVQWKVDNALQSGNSQESVTEQDSKDSTYSLSSTLTLSKADYEKHKVYACEVTHQGLSSPVTKSFNRGEC

binding result [2]: binds
B2: clone 577 chimeric antibody in the IgG4 format (antibody)
heavy: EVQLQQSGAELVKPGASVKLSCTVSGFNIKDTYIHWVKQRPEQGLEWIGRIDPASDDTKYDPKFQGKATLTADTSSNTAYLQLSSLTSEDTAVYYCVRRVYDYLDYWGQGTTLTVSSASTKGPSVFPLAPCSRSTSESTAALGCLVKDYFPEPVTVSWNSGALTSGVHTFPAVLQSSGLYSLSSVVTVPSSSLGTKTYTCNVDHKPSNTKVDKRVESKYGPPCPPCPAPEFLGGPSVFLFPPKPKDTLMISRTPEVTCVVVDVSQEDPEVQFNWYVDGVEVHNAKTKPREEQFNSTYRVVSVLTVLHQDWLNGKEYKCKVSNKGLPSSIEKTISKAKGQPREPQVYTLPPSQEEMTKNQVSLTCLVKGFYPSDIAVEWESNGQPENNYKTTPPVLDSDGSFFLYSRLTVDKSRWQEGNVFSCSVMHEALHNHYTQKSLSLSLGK
light: B1 light

binding result [2]: binds
B3: clone 24 chimeric antibody in the IgG1 format (antibody)
heavy: not shown
light: QIVLTQSPAIMSSFPGEKVTMTCSASSSVNYIHWYQQKSGTSPKRLIYDTSKLASGVPPRFSGSGSGTSYSLTISSMEAEDAATYYCQQWSRNPLTFGAGTKLELRRTVAAPSVFIFPPSDEQLKSGTASVVCLLNNFYPREAKVQWKVDNALQSGNSQESVTEQDSKDSTYSLSSTLTLSKADYEKHKVYACEVTHQGLSSPVTKSFNRGEC
notes: also called anti-human IL-7R antibody clone 24 (IgG1 format)

binding result [2]: binds
B4: clone 24 chimeric antibody in the IgG4 format (antibody)
heavy: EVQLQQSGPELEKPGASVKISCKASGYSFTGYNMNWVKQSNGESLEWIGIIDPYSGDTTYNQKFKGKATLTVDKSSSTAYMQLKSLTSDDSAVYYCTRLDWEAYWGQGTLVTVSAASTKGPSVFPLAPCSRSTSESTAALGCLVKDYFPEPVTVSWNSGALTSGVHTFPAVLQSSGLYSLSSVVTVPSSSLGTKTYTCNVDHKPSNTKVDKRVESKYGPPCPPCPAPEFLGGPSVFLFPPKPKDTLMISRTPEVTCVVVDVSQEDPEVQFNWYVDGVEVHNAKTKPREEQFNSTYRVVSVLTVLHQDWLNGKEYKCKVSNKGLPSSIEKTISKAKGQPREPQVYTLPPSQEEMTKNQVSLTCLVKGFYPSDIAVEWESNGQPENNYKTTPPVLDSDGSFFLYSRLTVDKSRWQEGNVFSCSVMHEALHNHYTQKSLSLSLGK
light: B3 light
notes: also called anti-human IL-7R antibody clone 24 (IgG4 format)

binding result [2]: binds
B5: clone 2D5 chimeric antibody in the IgG1 format (antibody)
heavy: not shown
light: DIVMTQSHKFMSTSVGDRVSITCKASQDVGIVVAWYQQKPGQSPKLLIYWASTRHTGVPDRFTGSGSGTDFTLTISNVQSEDLADYFCQQYSSYPLTFGAGTKLELRRTVAAPSVFIFPPSDEQLKSGTASVVCLLNNFYPREAKVQWKVDNALQSGNSQESVTEQDSKDSTYSLSSTLTLSKADYEKHKVYACEVTHQGLSSPVTKSFNRGEC
notes: also called anti-human IL-7R antibody clone 2D5 (IgG1 format)

binding result [2]: binds
B6: clone 2D5 chimeric antibody in the IgG4 format (antibody)
heavy: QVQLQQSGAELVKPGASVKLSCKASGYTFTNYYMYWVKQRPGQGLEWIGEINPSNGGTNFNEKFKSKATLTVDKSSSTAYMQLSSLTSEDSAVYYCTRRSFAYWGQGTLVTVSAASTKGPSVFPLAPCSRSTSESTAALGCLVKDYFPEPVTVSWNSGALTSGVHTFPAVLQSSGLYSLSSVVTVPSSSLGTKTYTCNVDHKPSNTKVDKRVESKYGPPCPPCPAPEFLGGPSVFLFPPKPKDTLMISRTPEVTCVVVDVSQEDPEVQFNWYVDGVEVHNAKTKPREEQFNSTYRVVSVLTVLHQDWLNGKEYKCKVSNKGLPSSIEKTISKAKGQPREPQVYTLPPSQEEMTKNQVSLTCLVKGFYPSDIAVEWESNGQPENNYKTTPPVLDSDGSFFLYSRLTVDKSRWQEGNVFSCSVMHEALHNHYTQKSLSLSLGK
light: B5 light
notes: also called anti-human IL-7R antibody clone 2D5 (IgG4 format)
